The target in the assay is CBD-NpuDnaE_(NΔ16). The assay is described as follows: SPR. (In general: Surface plasmon resonance follows binding to a sensor surface in real time, without labels.)

In the case of NpuDnaEC16-eGFP (domain or fragment), the Kd (commonly the concentration at which binding is half-saturated) was determined as 1.6 nM.

The record behind these values is paper doi:10.1101/215566.
